According to the nanobody polyreactivity screen of Harvey et al. (2022):

Assay: yeast display, Sf9 membrane polyspecificity reagent, FACS + sequencing; frameworks hold sequencing errors
Method in brief: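 After 36–48 hours of galactose induction, yeast (Saccharomyces cerevisiae BJ5465) displaying a synthetic nanobody library were stained at 4 °C for 1 hour with 10% biotinylated, detergent-solubilized Sf9 membrane reagent. Streptavidin microbeads enriched the stained cells before FACS sorting into low and high (top ~1%) gates on anti-HA and streptavidin fluorescence. Each clone's polyreactivity label reflects its gate of origin.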

QVQLVESGGGLVQAGGSLRLSCAASGFTFRPNAMGWYRPAPAKERELVAAISGSGGSTYYADSVKGRFTISRDNAKNTVYLQMNSLKPEDTAVYYFAADSYYDGDYWGQGTQVTVSS
polyreactivity (PSR sort gate): low polyreactivity

QVQLVESGGGLVQAGGSLRLSCAASGRTFRINTMGWYRQAPGKERELVATITGSGGSTYYADSVKGRFTISRDNANNTVYLQMNSLKPEDTAVYYCAAFGDQNEYDYWGQGTQVTVSS
polyreactivity (PSR sort gate): low polyreactivity

QVQLVESGGGLVQAGGSLRLSCAASGNILFYNSMGWYRQAPGKERELVAAISRSAGSTYYADSVKGRFTISRDNAKNTVYLQMNRLKAEDTAVYYCAAQYFRRSGYWGQGTQVTVSS
polyreactivity (PSR sort gate): high polyreactivity

QVQLVESGGGLVQAGGSLRLSCAASGRIFGFYAMGCYRQAPGKERELVAVITYRDGRTYYADSVKGRFTISRDNEKNTVYLQMNSLKPEDTAVYYCARGYQGRLKYESWGQGTQVTVSS
polyreactivity (PSR sort gate): low polyreactivity

QVQLVESGGGLVQAGGSLRLSCAASGSTFGYYAMGWYRHAPGKERELVAAISWRGGSTYYADSVKGRYTISRDNAKNTVYLQMISLKPEDTAVYYCAAPVGNYGSFDYWGQGTQVTVSS
polyreactivity (PSR sort gate): low polyreactivity

QVQLVESGGGLVQAGGSLRLSCAASGSIFLYNTMGWYRQAPGKERELVAAITYSGGSTYYADSVKGRFTISRDNAKNTVYLQMNSLKPEDTAVYYCAARRLPRKERKLYYWGQGTQVTVSS
polyreactivity (PSR sort gate): high polyreactivity

QVQLVESGGGLVQAGGSLRLSCAASGFIFQVYAMGWYRQAPGKERELVASISSSGGSTYYADSVKGRFTISRDNAKNTVYLQMNSLKPEDTAVYYCAVEQRYRYWYRYRYKFLLDSDYWGQGTQVTVSS
polyreactivity (PSR sort gate): high polyreactivity

QVQLVESGGGLVQAGGSLRLSCAASGIIIRKYAMGWYRQAPGKERELVAAITTRGSRTYYADSVKGRFTISRDNAKNTVYLQMNSLKPEDTAVYYCAGDRYTVRMDYWGQGTQVTVSS
polyreactivity (PSR sort gate): high polyreactivity

QVQLVESGGGLVQAGGSLRLSCAASGRTFAGYVMGWYRQAPGKERELVAAISTSGGSTYYADSVKGRFTISRDNAKNTVYLQMNSLKPEDTAVYYCNVYLKHRYYNQMDYWGQGTQVTVSS
polyreactivity (PSR sort gate): high polyreactivity

QVQLVESGGGLVQAGGSLRLSWAASGFTFRRNAMGWYRQAPGKEREFVAAITRSGGSTYYADSVKGRFTISRDNAKNTVYVHMNSLKPEDTAVYYCAKERPTDRYPSDEYWGQGTQVTVSS
polyreactivity (PSR sort gate): high polyreactivity

QVQLVESGGGLVQAGGSLRLSCAASGYISSYNPMGWSRQAPGKERELVASITRGGSTYYADSVKGRFTISRDNAKNTVYLQMNSLKPEDTAVYYCAADTLRQYDYEYWGQGTQVTVSS
polyreactivity (PSR sort gate): high polyreactivity

QVQLVESGGGLVQAGCSLRLSCAASGLTFHWYTMGWYRQAPGKERELVATINSGGSTDYADSVKGRFTISRDNAKNTVYLQMNSLKPEDTAVYYCNAEYGYSGVGDDYWGQGTQVTVSS
polyreactivity (PSR sort gate): low polyreactivity

QVQLVESGGGLVQAGGSLRLSCAASGFIFAVNAMGWYRQAPGKERELVAAISGRGGRTYYADSVKGRFTISRDYAKNTVYLQMNSLKPEDTAVYYCAARSYQYSYSFYWGQGTQVTVSS
polyreactivity (PSR sort gate): high polyreactivity

QVQLVESGGGLVQAGGSLRLSCAASGLPFRFNALGWNRQAPGKERELVARISAGGGSTYYADSVKGRFTISRDNAKNTVYLQMNSLKPEDTAVYYCAVDKSTEFSSGPHVAGDDSWGQGTQVTVSS
polyreactivity (PSR sort gate): low polyreactivity

QVQLVESGGGLVQAGGSLRVSCAASGFTFHKYAMGWYRQAPGKDRELVAVISQSASSTYYADSVKGRFTISRDNAKNTVYFQMNGLKPEDTAVYYCNAKYYRYNRRNYWGQGTQVTVSS
polyreactivity (PSR sort gate): high polyreactivity

QVQLVESGGGLVQAGGSLRLSCAASGSILDSNAMGWYRQAPGKERELVAAITSGGSTYYADSVKGRFTISRDNAKNTVYLQKNSLKPEDTAVYYCDTPVASVTGYDYWGQGTQVTVSS
polyreactivity (PSR sort gate): low polyreactivity

QVQLVESAGGLVQAGGSLRLTCAASGRTFHHNAMGWYRQPPGKERELFAAITSVGNTYADSVKGRFTISRDNAKNTVYLLMNSMKPEDTAVYYCNARIYDSRFYWSPATSRFEYWGQGTQVTLSS
polyreactivity (PSR sort gate): low polyreactivity

QVQLVESGGGLVQAGGSLRLSCAASGRIFATYVMGGYRQAPGKERELVATISSGGSTNYADSVKGRFTISRDNAKNTVYLQMNSLKPEDTAVYYCAVVDGNYWYVKGDYWGQGTQVTVSS
polyreactivity (PSR sort gate): low polyreactivity

QVQLVESGGGIVQAGGSLRLSCAASGSIFGVYAMGWYRQAPGKERELVAAISSSGGRTYYADSVKGRFTISRDNAKNTVYLQMISLKPEDTAVYYCAAVPWRRSTRYDYWGQGTLVTVSS
polyreactivity (PSR sort gate): high polyreactivity

QDQLVESRGGLVQAGGSLRLSCAASGLIFWRYTMGWYSQAPGKERELVAAINRSGGSTYYADSVKGRFTISRDNAKNTVYFQMNSLKPDDPAVYYCAASGYRYPIDGDYWGLGTQVTVSS
polyreactivity (PSR sort gate): high polyreactivity

QVQLVESGGGLVQAGGSLRLSCAASGRTLRKYAMGWYRQAPGKERELVAAITWTGGTTYYADSVKWRFTISRDNAKNTVYLQMNSLKPEDTAVYYCATVRSYGYGYDFWGQGTQVTVSS
polyreactivity (PSR sort gate): high polyreactivity

QVQLVESGGGLVQAGGSLRLSCAASGRTFRRYVMGWYRQAPGKERELVASITRGTGTDYADSVKGRFTISRDNAKNTVYLQMNSLKPEDTAVYYCNAEVKGFFYDYDYWGQGTQVTVSS
polyreactivity (PSR sort gate): low polyreactivity
